According to publication PMC11026580:
pKd: −log10 of the molar value. Read-outs that look alike come from different tables or passages of the source.

Key:
IgA2 (m2) C2Q = assay: SEC; analytical size-exclusion chromatography of affinity-purified IgA2 (m2) from small-scale transient transfections; JC co-expressed (LC:HC:JC 1:1:0.5)
[1] = target: extracellular domain of the human FcαRI (human) (UniProt P24071)
[2] = target: extracellular domain of the human FcαRI (human) (UniProt P24071); remark: listed apart in the source

Sequence of extracellular domain of the human FcαRI (human) (P24071 22-227): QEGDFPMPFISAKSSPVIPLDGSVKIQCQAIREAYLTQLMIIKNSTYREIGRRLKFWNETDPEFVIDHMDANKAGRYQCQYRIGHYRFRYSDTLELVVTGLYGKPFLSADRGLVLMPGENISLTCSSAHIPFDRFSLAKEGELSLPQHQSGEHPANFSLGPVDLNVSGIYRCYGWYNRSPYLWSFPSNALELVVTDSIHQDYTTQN

Substance: IgA2 (m2) C2Q (antibody)
- stoichiometry N (IgA2 (m2) C2Q): 2

Substance: IgA2 (m2) C2Q (from UniProt P01877)
- pKd [1]: 6.71

Substance: IgA2 (m2) N2Q (from UniProt P01877)
- pKd [2]: 6.52
